Reference: the supplement of paper PMC10126150
± gives the standard deviation of the averaged measurements.

Tested on: ATP
Experiment: switch fluorescence ratio, 500 uM ATP over buffer (Cy3 cluster intensity, sum of 5 cycles each) (fold (ratio)); higher = stronger signal-on switching upon ATP binding; sequences stand for … in TCGTCGGCAGCGTCAGATGTGTATAAGAGACAGTTTTTTTTTTTTTTTTTTTTTTTTT…TC
Conditions: aptamer strand: ATP DNA aptamer (quencher-CACCTGGGGGAGTATTGCGGAGGAAGG + anchor), 100 nM annealed; ATP concentration: 500 uM
Summary of the method: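 After annealing to 100 nM quencher-labelled ATP aptamer, Cy3-labelled switching-strand clusters on a modified Illumina MiSeq flow-cell were imaged in selection buffer. A second image followed after 15 min with 500 uM ATP at 22 °C, and five such buffer/ATP cycles were done, each separated by NaOH stripping and re-annealing. The fluorescence ratio, averaged per switch-domain sequence, is summed target-cycle over summed buffer-cycle Cy3 intensity per cluster, with clusters outside 100-1000 RFU excluded.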
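Further: ATP exposure 15 min at 22 °C before imaging.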

Sequence	switch fluorescence ratio
AATCGTGGTT	1 ± 0.034
AATCGTTGGG	0.955 ± 0.038
AATCTCGTGG	0.995 ± 0.051
AATCTGATGT	1.18 ± 0.28
AATCTGCTGC	1.09 ± 0.056
AATCTGCTTG	1.05 ± 0.024
AATCTGGGCG	0.985 ± 0.016
AATCTGTCCT	1.04 ± 0.027
AATCTGTTCG	0.9708 ± 0.004
AATGAAAAGT	0.992 ± 0.017
AATGAAATAG	0.998 ± 0.0061
AATGACGAGC	1.04 ± 0.017
AATGACTTAA	1.01 ± 0.048
AATGAGAGTG	1 ± 0.035
AATGAGGGTA	1.04 ± 0.019
AATGAGGGTC	0.989 ± 0.11
AATGAGTCGG	0.998 ± 0.033
AATGAGTGTT	1.02 ± 0.042
AATGATCGGG	1.004 ± 0.0094
AATGATGCTT	1 ± 0.051
AATGCAACAG	1.15 ± 0.056
AATGCAATTG	1.03 ± 0.016
AATGCGCATC	1.05 ± 0.023
AATGCTCGCT	1.022 ± 0.0061
AATGCTTAGA	0.985 ± 0.03

Sequence	switch fluorescence ratio
AATGGATACT	1.03 ± 0.012
AATGGATGTG	0.991 ± 0.013
AATGGCAGTG	1 ± 0.048
AATGGCTGGG	0.999 ± 0.043
AATGGGATTG	0.972 ± 0.0096
AATGGGCAGC	1.02 ± 0.013
AATGGGGCTT	0.995 ± 0.03
AATGGGGGGA	0.998 ± 0.057
AATGGGGTCT	1.01 ± 0.047
AATGGGGTTA	0.997 ± 0.023
AATGGGTATC	0.9923 ± 0.0088
AATGGGTGGT	1 ± 0.017
AATGGGTTTG	1.01 ± 0.03
AATGGTAAGG	0.963 ± 0.033
AATGGTTCGC	1.009 ± 0.0069
AATGGTTCTC	0.985 ± 0.022
AATGGTTGAC	0.988 ± 0.017
AATGTAAAG	1.03 ± 0.011
AATGTAGACT	1.017 ± 0.0084
AATGTAGCAC	1.048 ± 0.0063
AATGTCAGAG	0.986 ± 0.02
AATGTCAGGA	1.01 ± 0.044
AATGTCCGTC	1.04 ± 0.046
AATGTCGCGC	0.961 ± 0.016
AATGTCTGTA	1.01 ± 0.044

Sequence	switch fluorescence ratio
AATGTGGGTG	1.03 ± 0.045
AATGTGGTCG	0.983 ± 0.085
AATGTGTGGG	1.01 ± 0.02
AATGTGTTG	0.984 ± 0.041
AATGTGTTTG	0.992 ± 0.042
AATGTTAGTG	0.958 ± 0.036
AATGTTATTA	0.995 ± 0.048
AATGTTCACG	1.02 ± 0.019
AATGTTCATG	1.031 ± 0.0061
AATGTTGTTT	0.976 ± 0.02
AATGTTTTCT	1.05 ± 0.057
AATGTTTTGT	0.994 ± 0.021
AATTAACCCA	1.05 ± 0.051
AATTAACTAT	1.02 ± 0.027
AATTAACTCT	1.05 ± 0.02
AATTAAGATA	0.991 ± 0.03
AATTAATTCC	1.07 ± 0.026
AATTAATTGG	0.994 ± 0.012
AATTACTGG	1 ± 0.031
AATTAGGAGT	1.06 ± 0.079
AATTAGGATT	0.99 ± 0.016
AATTAGGGGA	1 ± 0.014
AATTAGGGTG	1.09 ± 0.05
AATTAGGTTT	1 ± 0.035
AATTAGTACG	0.981 ± 0.052

Sequence	switch fluorescence ratio
AATTAGTTAT	0.9835 ± 0.0033
AATTATCTGC	0.976 ± 0.015
AATTATCTGT	0.9792 ± 0.0065
AATTATGGGA	0.986 ± 0.051
AATTATTACT	1.02 ± 0.034
AATTATTTTA	1.022 ± 0.0018
AATTCCTACG	2.571 ± 0.02
AATTCCTAGG	1.03 ± 0.025
AATTCGAGAT	1.01 ± 0.034
AATTCGCACG	1.034 ± 0.006
AATTCTAATA	0.9997 ± 0.0033
AATTCTGAGA	1.02 ± 0.048
AATTGAAGTG	1.022 ± 0.01
AATTGCCGCG	1.02 ± 0.055
AATTGCCGTG	0.99946 ± 0.00023
AATTGCGGGA	0.9893 ± 0.0085
AATTGGAATA	0.956 ± 0.038
AATTGGGACA	1 ± 0.01
AATTGGGGTT	1.012 ± 0.0052
AATTGGGTTG	0.957 ± 0.026
AATTGGTGGT	0.965 ± 0.032
AATTGTATGG	1.04 ± 0.044
AATTGTATGT	0.989 ± 0.029
AATTGTGAAA	1.01 ± 0.013
AATTGTGAGG	1.01 ± 0.023

Sequence	switch fluorescence ratio
AATTGTGCCG	1.1 ± 0.17
AATTGTGTTT	1.01 ± 0.021
AATTGTTGCT	0.99301 ± 0.00023
AATTTAAAG	0.992 ± 0.037
AATTTAAAGT	0.951 ± 0.052
AATTTAATTT	1.015 ± 0.006
AATTTAGACG	1.016 ± 0.0083
AATTTAGTAG	1 ± 0.013
AATTTATAGC	0.977 ± 0.034
AATTTATTGG	1.01 ± 0.013
AATTTCGTTG	0.999 ± 0.029
AATTTCTCGT	0.996 ± 0.016
AATTTGATAG	0.988 ± 0.018
AATTTGATGC	0.985 ± 0.018
AATTTGCAGT	1.004 ± 0.0043
AATTTGCGGT	0.988 ± 0.022
AATTTGCTAA	0.981 ± 0.013
AATTTGGGAA	0.999 ± 0.017
AATTTGGGGG	1.02 ± 0.039
AATTTGGGGT	0.995 ± 0.035
AATTTGGTG	1.026 ± 0.0011
AATTTGTATG	0.991 ± 0.028
AATTTGTTTG	1 ± 0.013
AATTTTAAGC	0.967 ± 0.041
AATTTTAATT	1 ± 0.027

Sequence	switch fluorescence ratio
AATTTTAGAA	1 ± 0.053
AATTTTAGTG	0.986 ± 0.02
AATTTTGGAG	0.996 ± 0.02
AATTTTGGTA	0.994 ± 0.016
AATTTTTATT	1.039 ± 0.0073
AATTTTTCTG	0.9869 ± 0.008
AATTTTTTT	0.992 ± 0.01
ACAAAAGACT	1.19 ± 0.25
ACAAAATTTT	1.03 ± 0.067
ACAAACGGGT	1.44 ± 0.073
ACAAACGTTC	1.34 ± 0.13
ACAAAGTGTG	1.03 ± 0.035
ACAAATTGGG	1.03 ± 0.092
ACAACGGCCG	1.05 ± 0.012
ACAACGGGGG	1.05 ± 0.025
ACAAGAAAGG	1.01 ± 0.035
ACAAGATTTT	0.9788 ± 0.0046
ACAAGCTTGT	0.975 ± 0.063
ACAAGGAGGC	0.983 ± 0.014
ACAAGGGAGC	0.954 ± 0.018
ACAAGGGATG	0.972 ± 0.041
ACAAGGGGCG	1.05 ± 0.079
ACAAGTGCGG	1.05 ± 0.024
ACAATGAAGA	1.01 ± 0.039
ACAATGGATG	0.994 ± 0.041

Sequence	switch fluorescence ratio
ACAATGGGTA	1.03 ± 0.024
ACAATTAAGC	1.04 ± 0.028
ACAATTGCGT	1.05 ± 0.024
ACAATTGGTC	1.02 ± 0.034
ACACACGACG	1.29 ± 0.013
ACACCAGGGG	4.18 ± 0.57
ACACCCGCGC	1.45 ± 0.064
ACACCTCATA	1.1 ± 0.039
ACACGATTGG	0.991 ± 0.014
ACACGCAAAA	1.571 ± 0.0081
ACACGGGCCT	1.03 ± 0.062
ACACGGGGGA	1.01 ± 0.024
ACACGGTCTA	1.01 ± 0.04
ACACGTCTGG	1.01 ± 0.029
ACACTAGGGC	1.04 ± 0.02
ACACTAGTGT	0.985 ± 0.032
ACACTATAAT	1.09 ± 0.014
ACACTATTAT	1.07 ± 0.033
ACACTGCTCG	1.05 ± 0.011
ACACTTTCG	1.018 ± 0.0011
ACAGAATAGG	1.018 ± 0.0027
ACAGACAGCG	1.06 ± 0.022
ACAGACTATA	1.094 ± 0.0097
ACAGACTTGT	1.01 ± 0.037
ACAGAGGAGC	1.062 ± 0.006

Sequence	switch fluorescence ratio
ACAGAGGGAT	1.02 ± 0.018
ACAGCAGCGG	1.05 ± 0.021
ACAGCCACGG	1.18 ± 0.038
ACAGCTGGGG	1.0159 ± 0.00055
ACAGGAAGAT	1.03 ± 0.035
ACAGGAGCTT	1.05 ± 0.04
ACAGGCGCTT	1.01 ± 0.013
ACAGGCGGCT	1.1 ± 0.061
ACAGGGAGTT	0.9911 ± 0.0078
ACAGGGGGGC	1.06 ± 0.03
ACAGGGTGTC	1.05 ± 0.031
ACAGGTGGAA	1.235 ± 0.01
ACAGGTTGCG	0.9971 ± 0.0082
ACAGTAATGG	1.05 ± 0.041
ACAGTACACA	1.3 ± 0.061
ACAGTATGGT	1.02 ± 0.029
ACAGTCGACT	1.032 ± 0.0074
ACAGTCGGTG	1.028 ± 0.0066
ACAGTCTGAC	1.0082 ± 0.00053
ACAGTGGCAT	0.997 ± 0.034
ACAGTTAAGT	1.04 ± 0.039
ACAGTTTTCT	1.01 ± 0.024
ACATAAGAGG	1.05 ± 0.013
ACATACAGGG	1.31 ± 0.038
ACATACGGGG	1.3 ± 0.1
